Source: paper PMC4263767, “IL-28B is a Key Regulator of B- and T-Cell Vaccine Responses against Influenza” (PLoS Pathogens, 2014)
Where two headings read alike, the source gives them in different places.

Experiments:
Assay type in all cases: cell-based, human
[1] = test system: PBMCs from transplant recipients; settings: IL-28B 100 ng/mL, 2 h before 5-day H1N1; 38 transplant recipients; p = 0.004
[2] = test system: PBMCs from healthy volunteers; settings: 0 ng/mL: 19.2%, p = 0.92
Description: Prior to surface staining, LIVE/DEAD staining was performed (near-IR; Invitrogen). Markers for identifying T-cell subsets were CD3, and CD4. Intracellular cytokine staining was performed according to previously published protocols after overnight stimulation. IL-4 was used as a key representative for Th2 cytokine production. Background (unstimulated samples) were subtracted from stimulated results. All reagents including perm and fixation buffers and antibodies were from eBioscience. Isotype controls have previously been used to establish the assays.

[3] = test system: PBMCs from healthy volunteers; test: Time course of cytokine release, independently recruited healthy volunteers (S3 Figure); settings: IL-28B 100 ng/ml
From the text: Two luminex-based cytokine profiling kits were used (Eve Technologies, Calgary, Canada). (i) 17-plex: Fractalkine, IFN-α, IFN-γ, GRO, MCP-3, IL-13, sCD40-L, IL-9, IL-1β, IL-2, IL-4, IL-5, IL-6, IP-10, MCP-1, MIP-1α, and TNF-α. (ii) 41-plex: EGF, Eotaxin, FGF-2, FLT3, Fractalkine, G-CSF, GM-CSF, GRO. IFN-α2, IFN-γ, IL-1α, IL-1β, IL-1ra, IL-2, IL-3, IL-4, IL-5, IL-6, IL-7, IL-8, IL-9, IL-10, IL-12p40, IL-12p70, IL-13, IL-15, IL-17, IP-10, MCP-1, MCP-3, MDC, MIP-1α, MIP-1β, PDGF AA, PDGF AB/BB, RANTES, sCD40L, sIL2ra, TGF-α, TNF-α, TNF-β, and VEGF. Our independent experiment for examining a time course of cytokine induction was a custom-plex based on the 17-plex and still run and analyzed by Eve Technologies.
Supplementary file ppat.1004556.s003.tiff: S3 Figure A cytokine profile with pH1N1 stimulation +/− IL-28B pre-treatment (100 ng/ml) was performed. The time-points were collected within the same experiments. For the first 3 HVs studied, d+5 sample was not collected. Overall, the time-points d+1, d+3, d+7 were available in total 10 HVs and for d+5 in 7 HVs. Wilcoxon matched pairs rank test was used to test for significant difference. (TIFF) Click here for additional data file.

B1: IL-28B: recombinant IL-28B, a member of the interferon (IFN)-λ family (protein)
chain: VPVARLRGALPDARGCHIAQFKSLSPQELQAFKRAKDALEESLLLKDCKCRSRLFPRTWDLRQLQVRERPVALEAELALTLKVLEATADTDPALGDVLDQPLHTLHHILSQLRACIQPQPTAGPRTRGRLHHWLHRLQEAPKKESPGCLEASVTFNLFRLLTRDLNCVASGDLCV
modifications: left off: His tag, end not stated, kept
notes: recombinant IL-28B, a member of the interferon (IFN)-λ family
H1N1-induced IgG production with IL-28B (in words) [1]: significantly decreased | median % dead cells ([2]; IL-28B 1 ng/mL): 19.9% | median % dead cells ([2]; IL-28B 10 ng/mL): 23.6% | median % dead cells ([2]; IL-28B 100 ng/mL): 22.6% | IFN-γ (in words) [3]: trend for upregulation | Th1 and Th1-associated cytokines, early time-points (in words) [3]: significantly up-regulated (IFN-α, IL12p40, TNF- α, and IL-6) | Th2 and Th2-associated cytokines, later time-points (in words) [3]: down-regulated
